For this experiment, the target named is GAL4 DBD-BRCA1 wild type (C-terminal region) (human) (UniProt P38398). The experiment can be described thus: two-hybrid; mammalian two-hybrid: GAL4 DBD-BRCA1 as bait, VP16 AD-PALB2 as prey, co-transfected with the pG5Luc luciferase reporter and the phGR-TK Renilla control; read-out is luciferase activity above that of the BRCA1 construct alone. A general note: Reporter assays use an easily measured gene product as a stand-in for the process of interest.
Sequence of UniProt P38398 (P38398 1396-1863): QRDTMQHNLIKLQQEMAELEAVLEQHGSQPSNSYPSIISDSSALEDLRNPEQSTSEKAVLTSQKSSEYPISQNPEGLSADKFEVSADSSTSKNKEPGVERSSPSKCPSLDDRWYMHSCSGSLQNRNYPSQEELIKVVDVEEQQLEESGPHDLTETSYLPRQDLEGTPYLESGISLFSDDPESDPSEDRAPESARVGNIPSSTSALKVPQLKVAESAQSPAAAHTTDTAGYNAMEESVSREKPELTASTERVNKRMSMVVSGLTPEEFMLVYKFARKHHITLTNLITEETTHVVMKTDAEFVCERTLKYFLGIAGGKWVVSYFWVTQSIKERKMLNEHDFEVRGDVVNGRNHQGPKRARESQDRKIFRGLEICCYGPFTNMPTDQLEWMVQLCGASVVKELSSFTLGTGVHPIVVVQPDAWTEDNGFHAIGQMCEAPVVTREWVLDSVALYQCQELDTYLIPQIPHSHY

B1: VP16 AD–PALB2 fusion protein (PALB2 aa 1–319) (domain or fragment)
chain: MDEPPGKPLSCEEKEKLKEKLAFLKREYSKTLARLQRAQRAEKIKHSIKKTVEEQDCLSQQDLSPQLKHSEPKNKICVYDKLHIKTHLDEETGEKTSITLDVGPESFNPGDGPGGLPIQRTDDTQEHFPHRVSDPSGEQKQKLPSRRKKQQKRTFISQERDCVFGTDSLRLSGKRLKEQEEISSKNPARSPVTEIRTHLLSLKSELPDSPEPVTEINEDSVLIPPTAQPEKGVDTFLRRPNFTRATTVPLQTLSDSGSSQHLEHIPPKGSSELTTHDLKNIRFTSPVSLEAQGKKMTVSTDNLLVNKAISKSGQLPTSS
Regarding B1, the fold increase in luciferase activity with VP16-PALB2 stood at 3.8 fold.

Source of the values: paper PMC5539989.
